From patent publication US20050215503, “HIF oligonucleotide decoy molecules” (published 2005)

B1: decoy 829/830 (dsDNA)
DNA 1: AGGAGACGTGCTGCCT
DNA 2: AGGCAGCACGTCTCCT
B2: decoy 837/838 (dsDNA)
DNA 1: AGGCAACGTGCAGCCG
DNA 2: CGGCTGCACGTTGCCT
B3: decoy 815/816 (dsDNA)
DNA 1: GTGAGACGTGCGGCTTCCGTTTG
DNA 2: CAAACGGAAGCCGCACGTCTCAC
B4: decoy 831/832 (dsDNA)
DNA 1: TCCAATACGTGCAGTACT
DNA 2: AGTACTGCACGTATTGGA
B5: decoy 833/834 (dsDNA)
DNA 1: TCCAATGCGTGCAGTACT
DNA 2: AGTACTGCACGCATTGGA
B6: decoy 847/848 (dsDNA)
DNA 1: GGAACAACGTGGAATTAG
DNA 2: CTAATTCCACGTTGTTCC
B7: decoy 855/856 (dsDNA)
DNA 1: GTGTGTACGTGCAGGAAA
DNA 2: TTTCCTGCACGTACACAC
B8: decoy 801/802 (dsDNA)
DNA 1: GCCCTACGTGCTGTCTCA
DNA 2: TGAGACAGCACGTAGGGC
B9: decoy 813/814 (dsDNA)
DNA 1: GCCCTACGTGCTGTCTCACACAGC
DNA 2: GCTGTGTGAGACAGCACGTAGGGC
B10: decoy 905 (dsDNA)
DNA 1: GATCGCCCTACGTGCTGTCTCAGATC
DNA 2: GATCTGAGACAGCACGTAGGGCGATC
B11: decoy 911 (dsDNA)
DNA 1: CACAGCGTACGTGCTGTCTCA
DNA 2: TGAGACAGCACGTACGCTGTG
B12: decoy 807/808 (dsDNA)
DNA 1: TCTGTACGTGACCACACTCACCTC
DNA 2: GAGGTGAGTGTGGTCACGTACAGA
B13: decoy 835/836 (dsDNA)
DNA 1: GGCCAGACGTGCCACCGG
DNA 2: CCGGTGGCACGTCTGGCC
B14: decoy 859/860 (dsDNA)
DNA 1: ACCGTACGTGCTGATC
DNA 2: GATCAGCACGTACGGT
B15: decoy 867/868 (dsDNA)
DNA 1: TCCGTACGTGCTGCAC
DNA 2: GTGCAGCACGTACGGA
B16: decoy 873/874 (dsDNA)
DNA 1: TCCGTACGTGCTGCGT
DNA 2: ACGCAGCACGTACGGA
B17: decoy 871/872 (dsDNA)
DNA 1: ACCGTACGTGCTGCCA
DNA 2: TGGCAGCACGTACGGT
B18: decoy 877/878 (dsDNA)
DNA 1: ACCGTACGTGCTGCTA
DNA 2: TAGCAGCACGTACGGT
B19: decoy 805/806 (dsDNA)
DNA 1: CCCCCTCGGACGTGACTCGGACCAC
DNA 2: GTGGTCCGAGTCACGTCCGAGGGGG
B20: decoy 821/822 (dsDNA)
DNA 1: CGCGAGCGTACGTGCCTCAGG
DNA 2: CCTGAGGCACGTACGCTCGCG
B21: decoy 893 (dsDNA)
DNA 1: CACGAGCGTACGTGCCTCAGG
DNA 2: CCTGAGGCACGTACGCTCGTG
B22: decoy 899 (dsDNA)
DNA 1: CGAGCGTACGTGCCTCAGG
DNA 2: CCTGAGGCACGTACGCTCG
B23: decoy 927 (dsDNA)
DNA 1: CCAGCGTTCGTGCCTCAGG
DNA 2: CCTGAGGCACGAACGCTGG
B24: decoy 931 (dsDNA)
DNA 1: CCAGCGTCCGTGCCTCAGG
DNA 2: CCTGAGGCACGGACGCTGG
B25: decoy 929 (dsDNA)
DNA 1: CCAGCGTGCGTGCCTCAGG
DNA 2: CCTGAGGCACGCACGCTGG
B26: decoy 993 (dsDNA)
DNA 1: CCAGCGTACGTGCCACAGG
DNA 2: CCTGTGGCACGTACGCTGG
B27: decoy 995 (dsDNA)
DNA 1: CCAGCGTACGTGCCGCAGG
DNA 2: CCTGCGGCACGTACGCTGG
B28: decoy 957 (dsDNA)
DNA 1: CCAGCGCACGTGCCTCAGG
DNA 2: CCTGAGGCACGTGCGCTGG
B29: decoy 959 (dsDNA)
DNA 1: CCAGCGAACGTGCCTCAGG
DNA 2: CCTGAGGCACGTTCGCTGG
B30: decoy 961 (dsDNA)
DNA 1: CCAGCGGACGTGCCTCAGG
DNA 2: CCTGAGGCACGTCCGCTGG
B31: decoy 945 (dsDNA)
DNA 1: CCAGCGTACGAGCCTCAGG
DNA 2: CCTGAGGCTCGTACGCTGG
B32: decoy 947 (dsDNA)
DNA 1: CCAGCGTACGCGCCTCAGG
DNA 2: CCTGAGGCGCGTACGCTGG
B33: decoy 949 (dsDNA)
DNA 1: CCAGCGTACGGGCCTCAGG
DNA 2: CCTGAGGCCCGTACGCTGG
B34: decoy 939 (dsDNA)
DNA 1: CCAGCGTACATGCCTCAGG
DNA 2: CCTGAGGCATGTACGCTGG
B35: decoy 941 (dsDNA)
DNA 1: CCAGCGTACCTGCCTCAGG
DNA 2: CCTGAGGCAGGTACGCTGG
B36: decoy 943 (dsDNA)
DNA 1: CCAGCGTACTTGCCTCAGG
DNA 2: CCTGAGGCAAGTACGCTGG
B37: decoy 951 (dsDNA)
DNA 1: CCAGCGTACGTCCCTCAGG
DNA 2: CCTGAGGGACGTACGCTGG
B38: decoy 953 (dsDNA)
DNA 1: CCAGCGTACGTACCTCAGG
DNA 2: CCTGAGGTACGTACGCTGG
B39: decoy 955 (dsDNA)
DNA 1: CCAGCGTACGTTCCTCAGG
DNA 2: CCTGAGGAACGTACGCTGG
B40: decoy 975 (dsDNA)
DNA 1: CCACCGTACGTGCCTCAGG
DNA 2: CCTGAGGCACGTACGGTGG
B41: decoy 977 (dsDNA)
DNA 1: CCAACGTACGTGCCTCAGG
DNA 2: CCTGAGGCACGTACGTTGG
B42: decoy 979 (dsDNA)
DNA 1: CCATCGTACGTGCCTCAGG
DNA 2: CCTGAGGCACGTACGATGG
B43: decoy 963 (dsDNA)
DNA 1: CCAGCCTACGTGCCTCAGG
DNA 2: CCTGAGGCACGTAGGCTGG
B44: decoy 965 (dsDNA)
DNA 1: CCAGCTTACGTGCCTCAGG
DNA 2: CCTGAGGCACGTAAGCTGG
B45: decoy 967 (dsDNA)
DNA 1: CCAGCATACGTGCCTCAGG
DNA 2: CCTGAGGCACGTATGCTGG
B46: decoy 987 (dsDNA)
DNA 1: CCAGCGTACGTGCGTCAGG
DNA 2: CCTGACGCACGTACGCTGG
B47: decoy 989 (dsDNA)
DNA 1: CCAGCGTACGTGCTTCAGG
DNA 2: CCTGAAGCACGTACGCTGG
B48: decoy 991 (dsDNA)
DNA 1: CCAGCGTACGTGCATCAGG
DNA 2: CCTGATGCACGTACGCTGG
B49: decoy 969 (dsDNA)
DNA 1: CCAGGGTACGTGCCTCAGG
DNA 2: CCTGAGGCACGTACCCTGG
B50: decoy 971 (dsDNA)
DNA 1: CCAGTGTACGTGCCTCAGG
DNA 2: CCTGAGGCACGTACACTGG
B51: decoy 973 (dsDNA)
DNA 1: CCAGAGTACGTGCCTCAGG
DNA 2: CCTGAGGCACGTACTCTGG

Biological target: HIF-1 (HIF-1alpha/HIF-1beta (ARNT) heterodimer) (Homo sapiens?, UniProt Q16665;P27540 Q16665:1-826,P27540:2-789)
Assay: competition; TransAM
Details: protein: extract; tags: none (endogenous, nuclear extract)
Experimental: To assess the relative affinities of oligonucleotides for a HIF-1α containing complex, the HIF-1 TransAM assay (Active Motif, Catalog # 47096) was utilized. The assay was performed according to manufacturer's instructions. Briefly, a double-stranded oligonucletide containing the hypoxia response element (HRE) was immobilized on a 96-well plate. A nuclear extract containing HIF-1α complexes was incubated and allowed to bind to the immobilized oligonucleotide. The unbound material was washed away and the bound HIF-1α detected using an antibody that specificially recognizes HIF-1α. The anti-HIF-1α antibody was detected by a secondary antibody labeled with horseradish peroxidase (HRP), and the amount of HRP in each well was measured using a calorimetric substrate reaction and read using a microplate spectrophotometer.
The ability of candidate decoy molecules to compete for binding of HIF-1α to the HRE element-immobilized on the plate were measured and compared to reveal relative binding affinities. Candidate decoys were added in increasing molar ratios (relative to the amount of oligo immobilized on the plate) to compete for binding to the HIF-1α containing complexes. The amounts of decoys added to the assay included 0.625, 1.25, 2.5, 5, 10 and 20 fold molar excess. A well containing a competing decoy able to bind HIF-1α with high affinity would give a lower absorbance reading as compared to a decoy with low affinity for HIF-1α. All potential decoys were then compared and ranked in order to assess their relative binding affinities.
The screen was conducted using different decoy concentrations. For each UV absorbance reading, normalization was done by calculating the ratio of absorbance readings of sample vs. wild type control. The bigger ratio represents less competition of binding with HIF-1α when compared with wild-type control. The smaller (smaller than 1.0 or close to 1.0) ratios represent better binding or better competition.

Chain of HIF-1 (HIF-1alpha/HIF-1beta (ARNT) heterodimer) (Q16665 whole entry, chain 1 of 2): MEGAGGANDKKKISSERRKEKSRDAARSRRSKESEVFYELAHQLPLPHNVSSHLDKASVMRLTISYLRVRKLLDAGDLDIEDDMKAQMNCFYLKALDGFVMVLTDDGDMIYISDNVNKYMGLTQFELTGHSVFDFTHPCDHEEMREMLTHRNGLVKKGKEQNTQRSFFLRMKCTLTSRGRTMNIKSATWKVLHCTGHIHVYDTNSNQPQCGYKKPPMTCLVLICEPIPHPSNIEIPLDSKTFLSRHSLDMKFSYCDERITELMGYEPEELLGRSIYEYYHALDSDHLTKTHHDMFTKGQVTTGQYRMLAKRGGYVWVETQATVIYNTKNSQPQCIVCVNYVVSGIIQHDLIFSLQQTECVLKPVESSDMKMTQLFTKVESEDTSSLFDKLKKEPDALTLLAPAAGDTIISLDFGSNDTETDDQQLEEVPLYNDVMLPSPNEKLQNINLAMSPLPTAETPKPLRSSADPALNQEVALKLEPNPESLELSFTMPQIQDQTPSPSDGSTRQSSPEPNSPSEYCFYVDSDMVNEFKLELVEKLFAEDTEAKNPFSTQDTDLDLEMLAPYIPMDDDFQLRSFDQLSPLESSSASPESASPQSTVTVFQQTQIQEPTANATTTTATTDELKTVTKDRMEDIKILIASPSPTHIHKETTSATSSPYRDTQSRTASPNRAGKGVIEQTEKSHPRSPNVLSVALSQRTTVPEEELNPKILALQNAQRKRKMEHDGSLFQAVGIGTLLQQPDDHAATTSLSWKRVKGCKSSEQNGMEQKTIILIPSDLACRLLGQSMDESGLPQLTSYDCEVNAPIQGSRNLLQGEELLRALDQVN
Chain of HIF-1 (HIF-1alpha/HIF-1beta (ARNT) heterodimer) (P27540 2-789, chain 2 of 2): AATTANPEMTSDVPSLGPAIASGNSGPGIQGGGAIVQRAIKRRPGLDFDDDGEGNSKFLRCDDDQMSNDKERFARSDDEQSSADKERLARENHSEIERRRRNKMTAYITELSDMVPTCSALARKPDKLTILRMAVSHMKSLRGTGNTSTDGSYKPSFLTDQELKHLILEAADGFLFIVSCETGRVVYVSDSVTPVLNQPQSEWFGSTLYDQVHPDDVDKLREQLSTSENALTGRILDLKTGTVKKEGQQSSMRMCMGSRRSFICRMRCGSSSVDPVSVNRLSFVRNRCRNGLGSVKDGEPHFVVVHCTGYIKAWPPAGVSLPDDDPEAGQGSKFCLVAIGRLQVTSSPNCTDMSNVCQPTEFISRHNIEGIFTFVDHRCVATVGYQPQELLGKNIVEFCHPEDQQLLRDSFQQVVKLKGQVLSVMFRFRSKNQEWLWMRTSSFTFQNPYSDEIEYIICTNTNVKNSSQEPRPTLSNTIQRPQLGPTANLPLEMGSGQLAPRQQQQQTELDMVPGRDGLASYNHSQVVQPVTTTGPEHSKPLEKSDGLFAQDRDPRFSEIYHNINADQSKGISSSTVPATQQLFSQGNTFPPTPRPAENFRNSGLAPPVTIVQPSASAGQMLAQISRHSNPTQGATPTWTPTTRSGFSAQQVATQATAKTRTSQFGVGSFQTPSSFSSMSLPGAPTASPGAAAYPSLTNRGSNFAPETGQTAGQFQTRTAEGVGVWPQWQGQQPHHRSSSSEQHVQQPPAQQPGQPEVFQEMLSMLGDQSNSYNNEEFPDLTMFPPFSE

Binder	binding signal [ratio]
B1	5.12
B2	3.74
B3	4.43
B4	3.36
B5	3.05
B6	3.02
B7	1.07
B8	4
B9	4.6
B10	1.54
B11	1.16
B12	2.76
B13	2.91
B14	2.37
B15	2.63
B16	2.33
B17	2.21
B18	2.23
B19	1.13
B20	1.33
B21	0.94
B22	1.34
B23	3.16
B24	3.44
B25	2.35
B26	0.93

Binder	binding signal [ratio]
B27	0.92
B28	1.41
B29	2.07
B30	1.65
B31	3.14
B32	2.94
B33	2.73
B34	2.93
B35	3.45
B36	2.83
B37	2.91
B38	2.67
B39	2.4
B40	1.63
B41	1.43
B42	1.41
B43	1.17
B44	1.61
B45	1.53
B46	1.16
B47	1.21
B48	1.02
B49	1.67
B50	1.05
B51	1.34
